Test results as given in PMC12219679.
“And” between values parts separate entries of the source, which are not always exact repeats. Identical values can stand only once.

How the values were obtained:
[1] = biological target: CD95-His (Sino Biological) (UniProt P25445)
[2] = biological target: IZ-CD95L (after His-tag cleavage with TEV protease) (human); test: SEC; Superdex 75 10/300 GL (Fig. 3A) or ENrich SEC 70 10 x 300 (Fig. 3B, C); PBS pH 7.4, 0.3 ml/min; sizes from a standard curve of protein standards; peak shares from Gaussian fits
[3] = biological target: biotin-IZ-CD95L (human); test: as above
[4] = biological target: CD95-His (Sino Biological) (UniProt P25445); test: ELISA; CD95-His coated at 2 µg/ml in PBS overnight at 4 °C; biotin-IZ-CD95L or FLAG-CD95L 0.1 nM to 100 nM in 0.5% BSA/PBST, 2 h at r.t.; detected with anti-CD95L antibody and HRP secondary; 4-parameter logistic fit

Sequence of CD95-His (Sino Biological) (P25445 26-173): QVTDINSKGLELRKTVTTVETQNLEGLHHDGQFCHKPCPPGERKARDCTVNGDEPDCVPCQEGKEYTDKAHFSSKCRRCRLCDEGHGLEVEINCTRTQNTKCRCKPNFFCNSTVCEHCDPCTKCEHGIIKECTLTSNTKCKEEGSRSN

Row | Max (%) of apoptotic Hela WT cells (endogenous CD95), apoptosis dynamics assay, 1000 ng/ml ligand [1] [%] | percent of the protein in the trimer peak (Peak B, Gaussian fit) [2] [%] | stoichiometry N [2] | percent of the protein in the trimer peak (Peak B, Gaussian fit) [3] [%] | stoichiometry N [3] | Kd [4] [nM] | Substance
1 | 72.9 | 55 | 3 and 2 |  |  |  | IZ-CD95L (after His-tag cleavage with TEV protease) (ligand)
2 | 75.7 |  |  | 48 | 3 and 2 | 0.68 | biotin-IZ-CD95L (ligand)
